In PMC7889895, “Crystal structure of a photosynthetic LH1-RC in complex with its electron donor HiPIP” (Nature Communications, 2021):

Target: light-harvesting 1 - reaction center complex (LH1-RC) of Thermochromatium tepidum (Thermochromatium tepidum, UniProt D2Z0P5 23-404; D2Z0P3 1-281; A8ASG6 1-325; D2Z0P9 1-259; D2Z0P2 1-61; D2Z0P1 …)
Test: crystal structure; co-crystal by micro-batch under oil; HiPIP:LH1-RC mixed 15:1, LH1-RC 0.0694 mM; 30 mM sodium succinate pH 5, 20 mM CaCl2, 3.4% OPC, 30% PEG 1500; 20 °C; 2.9 Å
Conditions: both partners purified

- stoichiometry N: 1 HiPIP per LH1-RC
B1: high-potential iron-sulfur protein (HiPIP) of Thermochromatium tepidum (natural protein, UniProt P80176 1-83, looked up)
chain: AAPANAVTADDPTAIALKYNQDATKSERVAAARPGLPPEEQHCANCQFMQANVGEGDWKGCQLFPGKLINVNGWCASWTLKAG
notes: High-potential iron-sulfur protein (HiPIP), Thermochromatium tepidum strain MC, native protein with its 4Fe-4S cluster, purified in the reduced state; Carries a 4Fe-4S cluster; also called Tch. tepidum HiPIP; source: purified from Tch. tepidum strain MC (soluble fraction of sonicated cells, DEAE column)
